According to patent US11994512B2, “Single-cell genomic methods to generate ex vivo cell systems that recapitulate in vivo biology with improved fidelity” (Massachusetts Institute of Technology, priority 2018, dated 2024):

B1: Q3UHD3 (protein, UniProt Q3UHD3 1-1353, looked up)
chain: MSVPLAPKKSCFGQLRDHREGAKNNNESILRTGDTNANQIMLEVSSSCDEAKSRDLDDELGNSNLSRPQYHSHFQKEPLHLQGFGKGSQAGSTSQRESQASLTVHRQLSEEHAVKRGALQAPQCVQGPSLSSWRNAVGQASPEASAKKDAEIPRHIPKDKLAKTLDNEELKRASSCSAAAGSVPPTDLQPVQLDTLGPQDHVPARGEGPQRTPASHSPGKGFSPGEGTSEGNSVYLPKPSTSEAKGSSPSDTKMEGPHGLDVYNERITHAELTPSSASASKENPGLRHPEVCLGQGTGKSKVELKSVQPRNEEGLTSAQAQGPGCHEERSMSPVERQELLEKAYREATSQGNSSHRQLGVRRGSSLEEMTGVSAGVEGSQQATPTLSAAPAGEAGTRLTGKMSAGVGRMARETASGQTAPDVGQAAPVRRDPTESVPSEVSGEERRLGSGNSGSTKLLASGPSAGGSRTDTSGLLSPRGSNLEARKGKEMVAENRNLLENAAQTDNTPAGVDSAFSTPAPLLHPETTVNSSHHPTPPGSSSQELGVFSGDTGSPSVASPPTDGGQVLNTSPKVPDRTTCSSGIPKPPTHPKDTPSSQEAREKLETEKMEERAEAKPILMPKPKHVRPKIITYIRRNPQALSQGDASLVPVGLPYAPPTCGMPLPQEEKAASRDLQPSANMYEKLKPDLQKPRVFPSGLMVSGIKPPAHHFSQMSEKFLQEVADHPGKEEFCSPPYTHYEVPPTFYRSAMLLKPQLGLGAMSRLPSTKSRILIASQRSSASAIHPPGSLTTAASFYGSDPSDLKKASNSNAAKASLPKSGLRPPGYSRLPAAKLAAFGFVRSSSISAVPSSQSLDSVQPEQSRPVTRSTFGNEEQAPLKQALPSKDTPKGAGRAAPASSSNATTPRRSLLPAPKSTSTPAGAKKELQKDPEAKKPAVSSPKRTASAATKPHSPGYPKQRTSAPRNEFPPKPDLQAREAERQLAQRLRDRCEWQARQLGLARRELKKAIQGFDALAVSTKHFFGKSERALAKEKELSIELANIRDEVAFNTAKCEKLQKEKETLERRFEEELRRLGWQQQAEVQELQERLQQQFQAESARLQAEHQDQLLRMRCQHQEQVEDITASHEAALLEMENNHTVAITILQDDHDHKVQELMSTHEFEKKELEENFEKLRLTLQDQVDTLTFQSQSLRDRARRFEEALRKTTEEQLEIALAPYQHLEEDMQSLKQVLEMKNQQIHLQEKKIIELEKLVEKNIILEERIQVLQQQNEDLKARIDQNTVVTRQLSEENANLQEYVEKETQEKKRLSRTNEELLWKLQTGDPTSPIKLSPTSPVYRGSSSGPSSPARVSTTPR
modifications: full-length
B2: Q3UA16 (protein, UniProt Q3UA16 1-226, looked up)
chain: MGEDELALLNQSINEFGDKFRNRLDDNHSQVLGLRDAFKDSMKAFSEKMSLKLKEEERMTEMILEYKNQLCKQNKLIQEKKENVLKMIAEVKGKEQESEELTAKIQELKEEYARKRETISTANKANEERLKGLQKSADLYRDYLGLEIRKIHGNKLQFIFTSIDPKNPESPYMFSMSINEAKEYEVYDSSPHLECLAEFQEKVRKTNNFSAFLANIRKAFIAKVHN
modifications: full-length
B3: Q3U9N9 (protein, UniProt Q3U9N9 1-512, looked up)
chain: MVPSQEEPAAERETNEAQPPGPAPSDDAPLPGPGPSDVSDVAAEKVEVELTRSAGSEPPVPPEGGWGWLVMLAAMWCNGSVFGIQNAYGVLFVSMLDTFKAKDDDNMAFKTAWVGSLSMGMIFFCCPIVSVFTDMFGCRRTAVVGAAVGFIGLMSSSFVSSIEPLYLTYGIIFACGCSFAYQPSLVILGHYFKKRLGLVNGIVTAGSSVFTILLPLLLGNLISSVKLFNTLRILCIFMFVLFLAGFTYRPLVPSTKEKESGGSRSSFFSRRKLSPPKKVFNFALFKETTYAVWAAGIPLALFGYFVPYVHLMNHVKERFQDVNNKEVLFMCIGITSGVGRLLFGRIADYLPGVKKVYLQVLSFFFIGLMSMMIPLCSAFGALIAVCLAMGLFDGCFISIMAPIAFELVGPQDASQAIGFLLGFMSIPMTVGPPIAGLLHDKLGTYDVAFYLAGIPPFVGGVVLCLIPWIHSKKQRKISKNAGGEKMEKMLENQSSLLSGSSGIFKKDSASII
modifications: full-length
B4: Q33DR2 (protein, UniProt Q33DR2 1-409, looked up)
chain: MAMRWSCWRRGCSWRPTAVGSPRRERPGCVEPLGTRAASDTRAQIPYFSLMKILMSASPTMHSISQFHQRTPAMCSCRQTQSGEKYSDPFKLGWRDLKGLYEDIRKELHISTRELKDMSEYYFDGKGKAFRPIIVVLMARACNIHHNNAREMQASQRSIALVAEMIHTATLVHDDVIDDASSRRGKHTVNKIWGEKKAVLAGDLILSAASVALARIGNTAVVSMLAQVIEDLVRGEFLQLGSKENENERFAHYLEKTFKKTASLIANSCKAVSVLGCPDPVVHEIAYQYGKNVGIAFQLIDDVLDFTSCSDQMGKPTSADLKLGIATGPVLFACQQFPEMNAMIMRRFSLPGDVDRARQYVLQSDGVQQTTYLAQQYCHKAVREIRKLRPSTERDALIQLSESVLTRDK
modifications: full-length
B5: Q3UGF1 (protein, UniProt Q3UGF1 1-1341, looked up)
chain: MKRVFSLLEKSWLGAPIQFAWQKSSGNYLAVTGADYIVKIFDRHGQKRSEISLPGNCVTMDWDKDGDILAVIAEKSSCIYLWDANTNKTSQLDNGMRDQMSFLLWSKIGSFLAVGTIKGNLLIYNHQTSRKIPVLGKHTKKITCGCWNSENLLALGGEDKMITVSNQEGDTIRQTPVKSEPSDIKFSMSKTDERISSAENTISAVVGKKMLFLFHLNEPDNPVDLEFQQAYGNIVCYSWYGDGYIMIGFSRGTFLAISTHFPEVGQEIFKARDHKDNLTSVALSQTLNKAATCGDNCIKIHDLTELRDMYAIINLDDENKGLGTLSWTDDGQLLALSTQRGSLHVFLTKLPILGDACHTRIAYLTSLLEVTVANLIEGEPPITVSVDVEPTFVAVGLYHLAVGMNNRAWFYVLGENVVKKLKDVEYLGTVASICLHSDYAAALFEGKIQLHLIENEMLDAQEERETRLFPAVDDKCRILCHALTSDFLIYGTDTGIIHYFFIEDWQFVNDYRHPVGVKKLFPDPNGTRLVFIDEKSDGFVYCPVNDATYEIPDFSPTIKGVLWENWPMDKGVFIAYDDDKVYTYAFHKDTIQGSKVILAGSTKLPFSHKPLLLYNGELTCQTQSGKINSIYLSTHSFLGSMKDTEPTDLRQMLTQTLLLKRFSDAWDICKMLNDRTSWSELAKACLHHMEVEFAIRVSRTMGDVGTVMSLEQIKGIEDYNLLAGHLAMFTNDFNLAQDLYLASNCPVAALEMRRDLQHWDSALQLAKRLAPDQIPFISKEYAIQLEFTGDYVNALAHYEKGITGDNKEHDEVCLAGVAQMSIRMGDIRRGANQALKHPSRVLKRDCGAILENMKQFSEAAQLYEKGQYYDRAASVYIRCKNWAKVGELLPHVSSPKIHLQYAKAKEADGRYKEAVVAYENAKQWNSVIRIYLDHLNNPEKAVSIVRETQSLDGAKMVARFFLQLGDYGSAIQFLVLSKCNNEAFTLAQQHNKMEIYADIIGAEDTTNEDYQSIALYFEGEKRHFQAGKFFLLCGQYSRALKHFLKCPSSEDNVAIEMAIETVGQAKDELLTNQLIDHLMGESDGMPKDAKYLFRLYMALKQYREAARTAIIIAREEQSAGNYRNAHDVLFSMYAELKAQKIKIPSEMATNLMILHSYILVKIHVKSGDHMKGARMLIRVANNISKFPSHIVPILTSTVIECHRAGLKNSAFSFAAMLMRPEYRNKIDAKYKKKIEAMVRRPDTSETEEATTPCPFCQFLLPECELLCPGCKNNIPYCIATGRHMLKDDWTMCPHCGFPALYSEFKILLNSESTCPMCSERLNSSQLKKITDCSQYLRTEME
modifications: full-length
B6: Q3U0B3 (protein, UniProt Q3U0B3 1-260, looked up)
chain: MTRAGMERWRDRLALVTGASGGIGAAVARALVQQGLKVVGCARTVGNIEELAAECKSAGYPGTLIPYRCDLSNEEDILSMFSAVRSQHSGVDICINNAGMARPDTLLSGSTSGWKDMFNVNVLALSICTREAYQSMKERNIDDGHIININSMCGHRVPPQSVIHFYSATKYAVTALTEGLRQELLEAQTHIRATCISPGLVETQFAFKLHDKDPGEAAATYEHIKCLRPEDVAEAVIYVLSTPPHVQVGDIQMRPTEQVT
modifications: full-length

Test system: intracellular proteome of ENR+CD and ENR organoids
Assay: LC-MS/MS TMT proteomics of ENR+CD versus ENR organoids
Assay type: cell-based, C57BL/6 mice
Settings: for Average logFC / M1-1 Log2 Median Normalized / M1-2 Log2 Median Normalized / M2-1 Log2 Median Normalized / M2-2 Log2 Median Normalized: protein abundance, ENR+CD versus ENR organoids; for Average logFC: aggregate of the four sample pairs; for M1-1 Log2 Median Normalized: replicate M1-1; for M1-1 Log2 Median Normalized / M1-2 Log2 Median Normalized / M2-1 Log2 Median Normalized / M2-2 Log2 Median Normalized: log2 ratio; for M1-2 Log2 Median Normalized: replicate M1-2; for M2-1 Log2 Median Normalized: replicate M2-1; for M2-2 Log2 Median Normalized: replicate M2-2; for change: up = enriched in ENR+CD, down = enriched in ENR, FDR<0.05 and log fold change cut-off

| Molecule | Average logFC | M1-1 Log2 Median Normalized | M1-2 Log2 Median Normalized | M2-1 Log2 Median Normalized | M2-2 Log2 Median Normalized | change |
| --- | --- | --- | --- | --- | --- | --- |
| B1 | 1.47 | 1.347 | 0.087 | 1.7985 | 2.649 | up |
| B2 | −1.826 | −1.924 | −0.747 | −1.8235 | −2.598 | down |
| B3 | −1.314 | −1.309 | −0.055 | −1.4695 | −2.424 | down |
| B4 | −1.389 | −1.379 | −1.779 | −1.2185 | −1.389 | down |
| B5 | −1.153 | −0.199 | −0.895 | −1.3115 | −2.206 | down |
| B6 | −1.3 | −1.054 | −1.691 | −1.5305 | −0.923 | down |
